The star is where a group is joined. Biotin = O=C1N[C@H]2[C@H](CS[C@H]2CCCCC(=O)*)N1
How the values were obtained:
[1] = target: T1, integrin α5β1 on the cell surface (UniProt P08648 42-1049; P05556 21-798); experiment: cell surface titration on wild type K562 cells, readout Binder Bound Cells (%)
T1 construct: whole, on cells; HUVECs in the functional assays; also called α5β1 on wild type K562 (printed also A562) cells; α5β1 on HUVECs

HUVECs = experiment: Scratch-wound cell migration assay; assay type: cell-based, human; details: 20 nM, 12 hours, compared to PBS control
Description: FIG. 2. (A) BLI binding affinity traces for minibinder or ^8RGD^10/GGG mutant against α5β1 in indicated buffers. Minibinder affinity to integrin α5β1 is dependent on metal ion presence and RGD motif. All affinity data was collected by Octet™ R8 and binding affinity was estimated by the Octet™ ForteBio software package. (B) Minibinder has no detectable affinity in presence of 500 nM or 1000 nM integrin αvβ1, αvβ3, αvβ6, αvβ8 and α8β1. (C) Cell surface titration of minibinder 4584_V5.3 and 00179_v4.1 against K562 cells wild type. […] Integrin α5 subunit and β1 subunit were stained with integrin α5 and active integrin β1 subunit specific antibody, respectively. (E) Quantification of (D). Quantification was counted as a percentage of mb-sheets that colocalized with staining of a5 and b1, a5 only, b1 only, or none; 30-35 sheets were counted in each biological repeat. […] Minibinders were added to HUVEC cells at 0, 0.1, 1, 10, and 100 nM. Vascular stability was analyzed at 12-h timepoints. 20 images were taken in each well at random locations. The scale bar is 100 μm. (G) Quantification of (F). The number of nodes, meshes, and tubes from images in (F) were quantified using an angiogenesis analyzer plug-in in ImageJ. Statistical significance of each were analyzed using One-way Anova Bonferroni's multiple comparison test. […] The wound area of T0 and T12 time points were quantified using imageJ and level of cell migration were calculated using this equation (AreaT0-T12)/AreaT0, all samples were normalized to PBS as fold change.
The inhibitory effect of 20 nM soluble 00179_v4.1 on cell migration was assessed using the scratch-wound assay. HUVECs were seeded with either 00179_v4.1 or PBS (used as a […] control) for 12 hours before capturing images for analysis.

integrin α5β1 [2] = target: T2, integrin α5β1 (UniProt P08648 42-995; P05556 21-728); experiment: BLI (Octet), minibinder on the sensor, integrin α5β1 in solution at labelled concentrations up to 200 nM; buffer 1 mM Ca2+, 1 mM Mg2+, pH 5 [lower left panel]
T2 construct: also called alpha(5) beta(1) integrin; a5b1
Description: (§1) The binding affinity of each variant was calculated as described in Cao et al, 2022. By combining the beneficial mutations, combination libraries were constructed and screened for binding to α5β1 at an affinity as low as 200 pico-molar (FIG. 4). […] Because RGD binding depends on metal ions, the binders were tested for binding to integrin without metal ions. […] Similarly, mutating the RGD motif to GGG also abolished the binding ability. […] This is surprising, and provides a tool to track integrin α5β1 in endosome and lysosome.
(§2) Prior to measurements, streptavidin-coated biosensors were first equilibrated for at least 10 min in assay buffer. Protein binders with an N-terminal biotin were immobilized onto the biosensors by dipping them into a solution with 100 nM protein until the response reached between 10% and 50% of the maximum value followed by dipping sensors into fresh buffer to establish a baseline for 120 s. Titration experiments were performed at 25 degrees Celsius while rotating at 1000 rpm. Association of integrins was allowed by dipping biosensors in solutions containing designed protein diluted in buffer until equilibrium was approached followed by dissociation by dipping the biosensors into fresh buffer solution to monitor the dissociation kinetics.

integrin αvβ3 = target: T3, integrin αvβ3 (UniProt P06756 31-992; P05106 27-718); experiment: BLI (Octet), minibinder on the sensor, integrin αvβ3 in solution [panel αvβ3]
T3 construct: also called avb3
Description: (§3) Because of the large size of integrin and the distribution of integrin α5β1 on the cell surface, it was of interest to measure the affinity of the binders on the cell surface. Using wild type A562, the binding affinity of binders to α5β1 was measured, which is the only RGD binding integrin expressed in WT A562.
as §2, with “kinetics. In the minibinder binding cross specificity assays each biotinylated minibinder was loaded onto streptavidin biosensors in equal amounts followed by 2 min of baseline equilibration. The association and dissociation with all the different binders were allowed for 900-1500 s for each step. […]” for “kinetics.”

integrin α8β1 = target: T4, integrin α8β1 (UniProt P53708 39-1012; P05556 21-728); experiment: BLI (Octet), minibinder on the sensor, integrin α8β1 in solution [panel α8β1]
T4 construct: also called a8b1
Description: as §3
as §2, with “kinetics. In the minibinder binding cross specificity assays each biotinylated minibinder was loaded onto streptavidin biosensors in equal amounts followed by 2 min of baseline equilibration. The association and dissociation with all the different binders were allowed for 900-1500 s for each step. […]” for “kinetics.”

integrin αvβ8 = target: T5, integrin αvβ8 (UniProt P06756 31-992; P26012 43-684); experiment: BLI (Octet), minibinder on the sensor, integrin αvβ8 in solution [panel αvβ8]
T5 construct: also called avb8
Description: as §3
as §2, with “kinetics. In the minibinder binding cross specificity assays each biotinylated minibinder was loaded onto streptavidin biosensors in equal amounts followed by 2 min of baseline equilibration. The association and dissociation with all the different binders were allowed for 900-1500 s for each step. […]” for “kinetics.”

integrin αvβ1 = target: T6, integrin αvβ1 (UniProt P06756 31-992; P05556 21-728); experiment: BLI (Octet), minibinder on the sensor, integrin αvβ1 in solution [panel αvβ1]
T6 construct: also called avb1
Description: as §3
as §2, with “kinetics. In the minibinder binding cross specificity assays each biotinylated minibinder was loaded onto streptavidin biosensors in equal amounts followed by 2 min of baseline equilibration. The association and dissociation with all the different binders were allowed for 900-1500 s for each step. […]” for “kinetics.”

integrin α5β1 [3] = target: T2, integrin α5β1; experiment: BLI, integrin resting buffer (1 mM MgCl2, 1 mM CaCl2, pH 7.4), binder immobilised; BLI, integrin resting buffer pH 7.4 with 1 mM MgCl2, 1 mM CaCl2
Description: as §1, §2

integrin α5β1 [4] = target: T2, integrin α5β1; experiment: BLI (Octet), 00179_v4.1 RGD→GGG on the sensor, integrin α5β1 in solution; 1 mM Ca2+, 1 mM Mg2+, pH 7.4 [lower right panel]
Description: as §1, §2

T2 sequence (P08648 42-995, chain 1 of 2): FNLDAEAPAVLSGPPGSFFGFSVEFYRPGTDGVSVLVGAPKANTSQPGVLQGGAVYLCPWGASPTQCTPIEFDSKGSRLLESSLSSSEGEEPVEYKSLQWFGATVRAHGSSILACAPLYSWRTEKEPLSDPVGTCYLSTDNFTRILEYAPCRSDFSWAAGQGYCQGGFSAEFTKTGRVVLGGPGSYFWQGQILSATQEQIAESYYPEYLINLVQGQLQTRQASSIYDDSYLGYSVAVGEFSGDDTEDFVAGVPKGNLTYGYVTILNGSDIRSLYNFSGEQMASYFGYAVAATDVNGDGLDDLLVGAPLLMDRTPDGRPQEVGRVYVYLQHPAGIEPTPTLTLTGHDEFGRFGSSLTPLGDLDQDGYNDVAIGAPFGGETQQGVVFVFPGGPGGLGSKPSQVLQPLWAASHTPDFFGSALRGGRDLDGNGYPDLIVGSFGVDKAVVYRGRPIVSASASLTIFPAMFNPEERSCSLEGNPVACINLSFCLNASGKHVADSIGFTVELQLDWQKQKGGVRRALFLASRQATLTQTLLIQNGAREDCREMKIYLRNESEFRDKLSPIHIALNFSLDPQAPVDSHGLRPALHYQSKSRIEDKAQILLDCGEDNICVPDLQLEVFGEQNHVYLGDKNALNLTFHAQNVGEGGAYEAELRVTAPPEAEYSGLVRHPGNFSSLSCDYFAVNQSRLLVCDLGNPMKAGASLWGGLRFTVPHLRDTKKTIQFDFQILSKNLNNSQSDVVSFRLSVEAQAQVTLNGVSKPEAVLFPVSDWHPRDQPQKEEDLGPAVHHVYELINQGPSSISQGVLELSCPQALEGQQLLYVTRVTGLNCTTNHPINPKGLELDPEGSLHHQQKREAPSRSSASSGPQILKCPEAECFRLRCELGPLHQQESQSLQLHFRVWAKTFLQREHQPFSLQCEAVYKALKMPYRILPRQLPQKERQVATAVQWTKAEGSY
T2 sequence (P05556 21-728, chain 2 of 2): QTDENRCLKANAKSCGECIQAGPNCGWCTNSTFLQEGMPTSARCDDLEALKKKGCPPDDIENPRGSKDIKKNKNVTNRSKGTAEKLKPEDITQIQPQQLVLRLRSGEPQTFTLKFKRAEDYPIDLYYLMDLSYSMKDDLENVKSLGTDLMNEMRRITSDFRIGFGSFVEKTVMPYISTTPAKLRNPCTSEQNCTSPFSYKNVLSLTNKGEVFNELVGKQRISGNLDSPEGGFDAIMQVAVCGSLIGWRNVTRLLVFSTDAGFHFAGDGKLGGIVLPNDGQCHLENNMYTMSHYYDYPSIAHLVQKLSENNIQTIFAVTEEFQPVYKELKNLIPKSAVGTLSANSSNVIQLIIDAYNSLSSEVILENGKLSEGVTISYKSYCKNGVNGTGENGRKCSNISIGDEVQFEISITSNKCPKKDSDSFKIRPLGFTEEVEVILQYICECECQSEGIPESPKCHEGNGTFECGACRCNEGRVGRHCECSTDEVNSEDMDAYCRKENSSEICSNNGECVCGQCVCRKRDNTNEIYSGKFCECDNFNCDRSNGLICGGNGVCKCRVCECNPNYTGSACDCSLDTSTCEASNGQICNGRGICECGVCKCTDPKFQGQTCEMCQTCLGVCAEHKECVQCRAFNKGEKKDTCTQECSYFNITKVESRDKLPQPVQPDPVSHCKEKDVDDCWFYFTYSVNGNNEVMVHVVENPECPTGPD
T1 sequence (P08648 42-1049, chain 1 of 2): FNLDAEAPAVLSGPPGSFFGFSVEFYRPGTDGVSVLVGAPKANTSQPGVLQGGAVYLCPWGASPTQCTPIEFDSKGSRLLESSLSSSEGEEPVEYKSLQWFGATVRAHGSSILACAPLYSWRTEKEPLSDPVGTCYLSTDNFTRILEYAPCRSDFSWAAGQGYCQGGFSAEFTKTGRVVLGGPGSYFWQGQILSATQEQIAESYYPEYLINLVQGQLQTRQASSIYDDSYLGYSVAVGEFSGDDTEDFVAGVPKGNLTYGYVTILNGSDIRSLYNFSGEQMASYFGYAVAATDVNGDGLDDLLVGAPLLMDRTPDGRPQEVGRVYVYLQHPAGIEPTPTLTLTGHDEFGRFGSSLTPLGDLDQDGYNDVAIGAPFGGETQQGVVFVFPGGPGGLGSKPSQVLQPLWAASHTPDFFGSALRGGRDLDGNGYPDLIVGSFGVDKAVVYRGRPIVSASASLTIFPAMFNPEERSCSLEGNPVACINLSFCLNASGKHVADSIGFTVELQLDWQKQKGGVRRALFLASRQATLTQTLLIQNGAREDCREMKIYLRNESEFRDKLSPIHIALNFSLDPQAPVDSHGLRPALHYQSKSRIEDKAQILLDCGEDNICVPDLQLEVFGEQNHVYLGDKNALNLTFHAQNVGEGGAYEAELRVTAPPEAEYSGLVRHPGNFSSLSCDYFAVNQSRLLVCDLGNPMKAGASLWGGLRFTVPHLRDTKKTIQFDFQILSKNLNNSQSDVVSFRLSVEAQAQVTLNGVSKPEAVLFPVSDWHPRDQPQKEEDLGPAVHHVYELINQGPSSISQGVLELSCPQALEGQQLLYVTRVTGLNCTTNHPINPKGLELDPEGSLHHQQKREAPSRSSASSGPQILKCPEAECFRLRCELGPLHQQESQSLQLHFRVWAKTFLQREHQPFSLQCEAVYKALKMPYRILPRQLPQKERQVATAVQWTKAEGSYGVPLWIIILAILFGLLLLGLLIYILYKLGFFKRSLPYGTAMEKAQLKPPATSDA
T1 sequence (P05556 21-798, chain 2 of 2): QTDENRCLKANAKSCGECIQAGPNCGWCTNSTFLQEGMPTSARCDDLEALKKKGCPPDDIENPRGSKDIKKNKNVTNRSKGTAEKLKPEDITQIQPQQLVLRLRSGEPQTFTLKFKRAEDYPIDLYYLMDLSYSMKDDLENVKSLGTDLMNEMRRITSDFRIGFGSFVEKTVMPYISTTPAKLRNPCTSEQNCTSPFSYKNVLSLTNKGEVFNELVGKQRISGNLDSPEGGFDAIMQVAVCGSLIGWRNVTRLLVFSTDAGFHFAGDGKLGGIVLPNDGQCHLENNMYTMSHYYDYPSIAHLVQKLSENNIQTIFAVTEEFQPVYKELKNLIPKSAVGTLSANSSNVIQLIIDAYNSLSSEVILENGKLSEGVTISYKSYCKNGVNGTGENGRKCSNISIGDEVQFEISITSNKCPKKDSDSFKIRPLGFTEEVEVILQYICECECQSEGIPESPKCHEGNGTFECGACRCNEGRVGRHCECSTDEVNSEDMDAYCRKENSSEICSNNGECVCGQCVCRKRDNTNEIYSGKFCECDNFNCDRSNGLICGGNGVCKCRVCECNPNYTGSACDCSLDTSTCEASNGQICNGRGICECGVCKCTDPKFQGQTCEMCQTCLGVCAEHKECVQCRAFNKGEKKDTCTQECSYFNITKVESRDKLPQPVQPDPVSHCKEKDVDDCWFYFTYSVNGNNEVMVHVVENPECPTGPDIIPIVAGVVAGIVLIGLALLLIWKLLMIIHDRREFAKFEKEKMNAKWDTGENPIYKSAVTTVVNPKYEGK
T4 sequence (P53708 39-1012, chain 1 of 2): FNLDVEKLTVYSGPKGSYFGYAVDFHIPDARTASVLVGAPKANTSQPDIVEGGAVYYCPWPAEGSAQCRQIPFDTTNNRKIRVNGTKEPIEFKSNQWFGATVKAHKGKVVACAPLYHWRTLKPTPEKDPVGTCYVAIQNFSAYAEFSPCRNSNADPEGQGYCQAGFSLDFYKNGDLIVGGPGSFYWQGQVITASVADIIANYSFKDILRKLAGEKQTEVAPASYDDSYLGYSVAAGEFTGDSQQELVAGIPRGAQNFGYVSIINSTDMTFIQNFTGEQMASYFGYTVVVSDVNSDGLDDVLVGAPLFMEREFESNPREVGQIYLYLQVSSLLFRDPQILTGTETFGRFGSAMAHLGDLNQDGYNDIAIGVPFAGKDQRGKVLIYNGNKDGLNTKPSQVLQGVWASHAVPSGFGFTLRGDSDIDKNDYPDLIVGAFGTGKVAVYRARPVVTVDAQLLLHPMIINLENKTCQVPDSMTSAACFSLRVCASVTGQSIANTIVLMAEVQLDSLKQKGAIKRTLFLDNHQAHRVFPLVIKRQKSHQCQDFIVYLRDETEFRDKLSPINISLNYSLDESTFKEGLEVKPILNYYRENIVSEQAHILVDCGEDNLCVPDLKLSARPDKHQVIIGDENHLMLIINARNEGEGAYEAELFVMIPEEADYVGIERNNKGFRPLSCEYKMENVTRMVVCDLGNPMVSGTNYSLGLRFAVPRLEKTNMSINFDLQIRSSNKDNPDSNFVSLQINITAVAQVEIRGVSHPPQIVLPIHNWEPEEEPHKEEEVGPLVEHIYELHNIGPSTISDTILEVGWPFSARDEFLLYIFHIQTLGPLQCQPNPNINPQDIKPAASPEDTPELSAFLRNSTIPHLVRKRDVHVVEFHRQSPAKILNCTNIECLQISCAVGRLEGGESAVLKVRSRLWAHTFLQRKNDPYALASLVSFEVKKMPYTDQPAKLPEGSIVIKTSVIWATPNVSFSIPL
T4 sequence (P05556 21-728, chain 2 of 2): as the sequence (P05556 21-728, chain 2 of 2) above

B1: xw_a5b1_004584v5.3 (designed binder)
chain: GEVEVHGRGDIPRSSLELFEKVAKELGLKVERNHRTVTVKGVSEEQIRELEEVAKKLGLWVLVRVTE
notes: Tags of the construct as assayed are not specified
B1: binds [1].

B2: C6-mb: hexamer formed by mixing 00179_v4.1_N-term-LHD101A (SEQ ID NO:16) and C6-71-9-1_101B (SEQ ID NO:17) at 6:1 ratio (protein)
chain 1: MSGRQEKVLKSIEETVRKMGVTMETHRSGNEVKVVIKGLHIKQQRQLYRDVRETSKKQGVETEIEVEGDTVTIVVREGGSGGSELIIHGRGDFPRSELERLRERFERLGIKVRVDHKVLTLIGISEEEAERLARELRKRGIWVEIRKGSGSHHWGSTHHHHHH
chain 2: MGRQEKVLKSIEETVRKMGVTMETHRSGNEVKVVIKGLHESQQEQLLEDVLRTAEKQGVRVRIRFKGDTVTIVVREGSPEEILERAKESLERAKEAFERGDEEEFRKAAEKALELAKRLVEQAKKEGDPELVFEAARVALWVAWLAAWFGDKEVFKKAAESALEVAKRLVEVAKEEGDPELVLKAAFVALLVAIMAVILGDKEVFKKAAESALEVAKRLVEIAAREGDPELVEEAAKVAELVRELAKLMGDEEVYEKARETAREVRLFLLFVRIWEGGGGSLEHHHHHH
modifications: 6:1 hexameric assembly; VARIANT 1 optionally absent; VARIANT 148..163 optionally absent; VARIANT 282..289 optionally absent
With B2 the cell migration (HUVECs) was “even more pronounced inhibition of cell migration” and the cell migration (HUVECs; listed as C6-oligomer) was “inhibits cell migration”.

B3: xw_a5b1_00179_v4.1 (designed binder)
chain: SELIIHGRGDFPSSELERLRERFERLGIKVRVDHKVLTLIGISEEEAERLARELRKRGIWVEIRK
modifications: also: N-terminal avi-tag/biotin for BLI, His6 tag at N- or C-terminus, tag sequences not given here
notes: a His6 tag stood at the N- or C-terminus
B3 was tested, and the Kd (integrin α5β1 [2]) was 40 nM, the binding result (integrin αvβ3) was “no binding (tested: 500 nM)” and the binding result (integrin α8β1) was “no binding (tested: 500 nM)”. For the same molecule, the binding result (integrin αvβ8) was “no binding (tested: 500 nM)”, the binding result (integrin αvβ1) was “no binding (tested: 500 nM)” and the Kd (integrin α5β1 [3]) was 0.3 nM. The “EC50 (read off the curve)” value [1] was ~2 nM.

B4: 8RGD10/GGG mutant of minibinder 00179_v4.1 (designed binder)
chain: Biotin-SELIIHGGGGFPSSELERLRERFERLGIKVRVDHKVLTLIGISEEEAERLARELRKRGIWVEIRK
notes: also called RGD/GGG mutant
B4: no binding (tested: 1000 nM) (integrin α5β1 [4]).

From patent US20240383964A1, “De Novo Designed alpha(5) beta(1) Integrin selective minibinders” (UNIVERSITY OF WASHINGTON, priority 2023, published 2024)
